Here are results for 125 sequences from the supplement of paper PMC9112550, “Optimization of the antimicrobial peptide Bac7 by deep mutational scanning” (BMC Biology, 2022).

In this data set the test system is Escherichia coli TOP10. As to the kind of experiment: shrunken log2 fold change of peptide-encoding DNA abundance (4.5 h post-induction vs induction); higher = less antimicrobial activity (less host growth inhibition). The following applies: time post-induction: 4.5 h; library: site-saturation at positions 5, 18, 19, 20.
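Further: peptides expressed intracellularly from a pBAD plasmid library in pooled LB shake-flask culture, induced with 0.3% L-arabinose, DNA abundance read by NGS, three biological replicates, DESeq2 with apeglm shrinkage.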

Take RRIRLRPPRLPRPRPRPDLDPRP: the “shrunken log2 fold change” value was -0.0167.
For the sequence RRIRTRPPRLPRPRPRPRTIPRP, the “shrunken log2 fold change” value came out at 0.0752.
For RRIRQRPPRLPRPRPRPREEPRP, the “shrunken log2 fold change” value was -0.00407.
Under RRIRNRPPRLPRPRPRPLGTPRP stands 0.135; under RRIRQRPPRLPRPRPRPRWPPRP, 0.616; under RRIRPRPPRLPRPRPRPICKPRP, -0.081.
The figure for RRIRYRPPRLPRPRPRPADGPRP is 0.143; for RRIRPRPPRLPRPRPRPARNPRP it is 0.328; for RRIRTRPPRLPRPRPRPGLTPRP it is -0.0361.
Under RRIRARPPRLPRPRPRPFLAPRP stands -0.122.
Take RRIRGRPPRLPRPRPRPTESPRP: the “shrunken log2 fold change” value was determined as 0.803.
Under RRIRMRPPRLPRPRPRPGYAPRP stands 0.341.
As for RRIRKRPPRLPRPRPRPMRFPRP, the “shrunken log2 fold change” value worked out at 0.123.
The figure for RRIRIRPPRLPRPRPRPLWMPRP is -0.303.
Under RRIRERPPRLPRPRPRPHLDPRP stands 0.000475; under RRIRGRPPRLPRPRPRPYLCPRP, 0.0395.
The figure for RRIRKRPPRLPRPRPRPASTPRP is 0.53; for RRIRTRPPRLPRPRPRPYYQPRP it is -0.122.
Turning to RRIRQRPPRLPRPRPRPWVTPRP, the “shrunken log2 fold change” value was -0.219.
As for RRIRGRPPRLPRPRPRPRLDPRP, the “shrunken log2 fold change” value came out at 0.692.
For the sequence RRIRNRPPRLPRPRPRPYDIPRP, the “shrunken log2 fold change” value is -0.0698.
As for RRIRLRPPRLPRPRPRPFGTPRP, the “shrunken log2 fold change” value was -0.424.
Under RRIRMRPPRLPRPRPRPHHNPRP stands -0.533.
The figure for RRIRWRPPRLPRPRPRPKYVPRP is -0.0314.
For the sequence RRIRYRPPRLPRPRPRPFDPPRP, the “shrunken log2 fold change” value was -0.199.
Under RRIRQRPPRLPRPRPRPVSSPRP stands -0.255.
The figure for RRIRIRPPRLPRPRPRPYYKPRP is -1.01.
The figure for RRIRCRPPRLPRPRPRPKRGPRP is 0.27; for RRIRLRPPRLPRPRPRPDFIPRP it is -0.295.
As to RRIRKRPPRLPRPRPRPVFEPRP, the “shrunken log2 fold change” value turned out to be 0.347.
Regarding RRIRGRPPRLPRPRPRPCPSPRP, the “shrunken log2 fold change” value is 0.0189.
For the sequence RRIRQRPPRLPRPRPRPPMKPRP, the “shrunken log2 fold change” value is 0.00136.
Regarding RRIRVRPPRLPRPRPRPHVMPRP, the “shrunken log2 fold change” value was -0.526.
The figure for RRIRNRPPRLPRPRPRPVREPRP is 0.249; for RRIRNRPPRLPRPRPRPWTRPRP it is -0.00821; for RRIRTRPPRLPRPRPRPAPPPRP it is 0.525.
RRIRGRPPRLPRPRPRPDHCPRP: the “shrunken log2 fold change” value amounted to 0.0254.
Consider RRIRRRPPRLPRPRPRPAKPPRP, for which the “shrunken log2 fold change” value was determined as 0.125.
Take RRIRKRPPRLPRPRPRPCSVPRP: the “shrunken log2 fold change” value came out at 0.0108.
On to RRIRLRPPRLPRPRPRPLMIPRP, for which the “shrunken log2 fold change” value is -0.288.
As for RRIRHRPPRLPRPRPRPDWEPRP, the “shrunken log2 fold change” value is -0.00783.
The figure for RRIRARPPRLPRPRPRPCDDPRP is -0.0166; for RRIRIRPPRLPRPRPRPPVQPRP it is -0.0716; for RRIRIRPPRLPRPRPRPKQHPRP it is -0.307.
On to RRIRKRPPRLPRPRPRPTKWPRP, for which the “shrunken log2 fold change” value amounted to 0.172.
The figure for RRIRSRPPRLPRPRPRPNTRPRP is -0.186; for RRIRVRPPRLPRPRPRPNFEPRP it is 0.178; for RRIRPRPPRLPRPRPRPKWKPRP it is -0.0038.
Under RRIRHRPPRLPRPRPRPENQPRP stands -0.243; under RRIRMRPPRLPRPRPRPVDFPRP, 0.159.
The figure for RRIRCRPPRLPRPRPRPANCPRP is -0.364; for RRIRRRPPRLPRPRPRPCYDPRP it is -0.194; for RRIRWRPPRLPRPRPRPDLNPRP it is 0.392.
Take RRIRTRPPRLPRPRPRPPGHPRP: the “shrunken log2 fold change” value amounted to 0.245.
Under RRIRARPPRLPRPRPRPEYKPRP stands -0.0123.
The figure for RRIRWRPPRLPRPRPRPKPTPRP is 0.0876; for RRIRWRPPRLPRPRPRPEDWPRP it is 0.947; for RRIRTRPPRLPRPRPRPEGSPRP it is 0.161.
On to RRIRFRPPRLPRPRPRPLKYPRP, for which the “shrunken log2 fold change” value is -0.262.
Under RRIRERPPRLPRPRPRPWSGPRP stands -0.48.
Take RRIRERPPRLPRPRPRPVDWPRP: the “shrunken log2 fold change” value worked out at 0.0136.
For RRIRKRPPRLPRPRPRPCTAPRP, the “shrunken log2 fold change” value was determined as 0.383.
Regarding RRIRERPPRLPRPRPRPSGQPRP, the “shrunken log2 fold change” value is -0.148.
The figure for RRIRPRPPRLPRPRPRPNVTPRP is 0.209; for RRIRVRPPRLPRPRPRPPRMPRP it is 0.167.
Under RRIRRRPPRLPRPRPRPMAYPRP stands -0.193; under RRIRWRPPRLPRPRPRPGYQPRP, -0.00973.
Under RRIRFRPPRLPRPRPRPSIFPRP stands -0.579; under RRIRRRPPRLPRPRPRPIDFPRP, 0.137.
As for RRIRTRPPRLPRPRPRPWYAPRP, the “shrunken log2 fold change” value is -0.521.
RRIRQRPPRLPRPRPRPATWPRP: the “shrunken log2 fold change” value worked out at 0.343.
Under RRIRRRPPRLPRPRPRPRHEPRP stands 0.148; under RRIRNRPPRLPRPRPRPEVLPRP, -0.212.
The figure for RRIRRRPPRLPRPRPRPMMTPRP is 0.975; for RRIRERPPRLPRPRPRPNQYPRP it is -0.674; for RRIRHRPPRLPRPRPRPYHKPRP it is -0.412.
Turning to RRIRARPPRLPRPRPRPGGYPRP, the “shrunken log2 fold change” value amounted to 0.116.
With RRIRTRPPRLPRPRPRPERMPRP, the “shrunken log2 fold change” value was determined as 0.275.
Under RRIRWRPPRLPRPRPRPKHVPRP stands 0.254.
Under RRIRDRPPRLPRPRPRPDNNPRP stands -0.0748.
The figure for RRIRQRPPRLPRPRPRPDIRPRP is -0.154; for RRIRFRPPRLPRPRPRPTTMPRP it is -0.0267.
As for RRIRQRPPRLPRPRPRPRFYPRP, the “shrunken log2 fold change” value was -0.206.
The figure for RRIRPRPPRLPRPRPRPWMTPRP is 0.0158; for RRIRYRPPRLPRPRPRPYTYPRP it is -0.438.
Under RRIRTRPPRLPRPRPRPGERPRP stands 0.113; under RRIRCRPPRLPRPRPRPCLQPRP, -0.129; under RRIRTRPPRLPRPRPRPHSFPRP, -0.0168.
Take RRIRLRPPRLPRPRPRPFFFPRP: the “shrunken log2 fold change” value came out at 0.343.
In the case of RRIRNRPPRLPRPRPRPPAAPRP, the “shrunken log2 fold change” value is 0.676.
Under RRIRDRPPRLPRPRPRPKRHPRP stands 0.214.
Under RRIRHRPPRLPRPRPRPNASPRP stands 0.0449; under RRIRLRPPRLPRPRPRPMCSPRP, 0.382.
The figure for RRIRKRPPRLPRPRPRPRNMPRP is -0.162.
As for RRIRHRPPRLPRPRPRPEATPRP, the “shrunken log2 fold change” value is 0.0573.
Turning to RRIRTRPPRLPRPRPRPWFWPRP, the “shrunken log2 fold change” value was 0.0569.
The figure for RRIRWRPPRLPRPRPRPFHCPRP is -0.026.
Under RRIRMRPPRLPRPRPRPRKLPRP stands 0.857.
Under RRIRWRPPRLPRPRPRPGWTPRP stands 0.253.
RRIRNRPPRLPRPRPRPCCFPRP: the “shrunken log2 fold change” value is -0.278.
In the case of RRIRQRPPRLPRPRPRPFDGPRP, the “shrunken log2 fold change” value is -0.901.
RRIRNRPPRLPRPRPRPFFYPRP: the “shrunken log2 fold change” value was -0.242.
Under RRIRGRPPRLPRPRPRPPPNPRP stands 1.27; under RRIRHRPPRLPRPRPRPKRMPRP, 0.101.
Under RRIRVRPPRLPRPRPRPWHHPRP stands 0.0243; under RRIRERPPRLPRPRPRPGANPRP, 0.0574.
The figure for RRIRDRPPRLPRPRPRPCVEPRP is 0.111.
Take RRIRDRPPRLPRPRPRPMPAPRP: the “shrunken log2 fold change” value worked out at 0.354.
As for RRIRPRPPRLPRPRPRPFPHPRP, the “shrunken log2 fold change” value was -0.129.
The figure for RRIRLRPPRLPRPRPRPKWLPRP is 0.139.
RRIRRRPPRLPRPRPRPTGIPRP: the “shrunken log2 fold change” value turned out to be 0.872.
As to RRIRWRPPRLPRPRPRPVNLPRP, the “shrunken log2 fold change” value was -0.291.
The figure for RRIRQRPPRLPRPRPRPYSIPRP is 0.098; for RRIRRRPPRLPRPRPRPNAYPRP it is 0.0409; for RRIRIRPPRLPRPRPRPKYPPRP it is -0.121.
Under RRIRLRPPRLPRPRPRPHRCPRP stands -0.0644; under RRIRSRPPRLPRPRPRPKHCPRP, -0.00217.
The figure for RRIRGRPPRLPRPRPRPCADPRP is 1.48.
Regarding RRIRPRPPRLPRPRPRPKRAPRP, the “shrunken log2 fold change” value was found to be 0.395.
The figure for RRIRDRPPRLPRPRPRPQKGPRP is 0.00967.
Under RRIRLRPPRLPRPRPRPQNQPRP stands -0.159; under RRIRFRPPRLPRPRPRPYCKPRP, -0.243; under RRIRYRPPRLPRPRPRPTFSPRP, -0.383.
Consider RRIRMRPPRLPRPRPRPGNIPRP, for which the “shrunken log2 fold change” value is -0.115.
For the sequence RRIRGRPPRLPRPRPRPWTEPRP, the “shrunken log2 fold change” value was determined as 0.128.
